Experimental data from patent US7291601B1, “Arginine-rich anti-vascular endothelial growth factor peptides that inhibit growth and metastasis of human tumor cells by blocking angiogenesis” (Korea Greencross Corp., priority 1999, dated 2007).
Values joined by “and” are separate entries in the source; they are usually repeats but may differ in a detail not shown here. Equal entries are not always repeated. “Also recorded” adds a separate entry of the source. Where two headings read alike, the source gives them in different places. One block for each molecule: values may come before it.

What was measured:
[1] = system: HM7 (human colon carcinoma cell line); assay: Subcutaneous HM7 tumor growth in athymic nude mice; assay type: in vivo; details: after 15 days of subcutaneous injection
Procedure: From the next day, a solution of each peptide in PBS (0.5 μg/100 μl/day) was subcutaneously injected to the mice for 15 days. Sizes of the tumors thus formed were periodically measured while tumor volumes were calculated according to the following formula: Tumor Size=0.5×(Diameter)^2×length

[2] = system: HM7 (human colon carcinoma cell line); assay: Liver metastasis of HM7 cells transplanted into the spleen of nude mice; assay type: in vivo
Description: In order to conduct an experiment concerning the metastasis of cancer cells to the liver, cancerous cells were transplanted into the spleen. In this regard, after being anesthetized with diethyl ether, 4-week-old male mice (athymic nude mice, BALB/c/nu/nu, Charles River, Japan) underwent flank incision. […] Four weeks after the injection, the liver was excised from each mouse and measured for weight and the size and number of metastatic nodules formed. Each test group was composed of 6-7 mice. In a student's t-test, a p value less than 0.05 was regarded as being statistically significant. In the test using tetrazolium dye (cell titer 96 Non-radioactive Proliferation Assay Kit, Promega), each peptide was evaluated to have no influence on the growth of the cancer cells (5×10^3 cells/well), so that the possibility that the toxicity of the peptide themselves might inhibit the growth and metastasis of cancer cells could be excluded.

rabbit corneal domes = assay: Rabbit corneal dome angiogenesis induced by VEGF; assay type: in vivo; details: VEGF 10 ng with 1 μg peptide, 16 days after operation
Procedure: To confirm the test results obtained from egg CAM, an experiment was performed using rabbit corneal domes for in vivo angiogenesis testing. New Zealand male rabbits weighing 3 kg (SLC, Japan) were subjected to intramuscular ketamine anesthesia (44 mg/kg), followed by dissecting the corneal domes to a length of 3 mm by use of an operating knife (Bard-Parker—#11). […] 16 days after the operation, angiogenesis was obviously observed and photographs were taken of blood vessels newly formed in the corneal dome (Nikon, FS-2, Japan).

[3] = system: egg CAM (chorioallantoic membranes); assay: Egg CAM assay, angiogenesis induced by VEGF; assay type: in vivo
Procedure: Fertilized eggs (Pulmuwon, Korea) were incubated at 37° C. under a humidity of 90%. After three days of culturing, the eggs were deprived of about 2 ml of albumin. After four days, eggs were partially deprived of the sheath to make a window with a size of 2×2 cm.
After VEGF (10 ng/egg) was mixed with various amounts of peptides or other samples, 3 μl of each mixture was dropped onto ¼ fraction pieces of thermanox coverslips (Nunc) and dried. The pieces were placed on CAM of 9-day embryonic eggs.
Two days later, the samples were independently observed under anatomical microscopes by two different persons to determine whether new blood vessels are induced by the dropped samples or not. In this regard, the experiment was repeated at least three times using 10 or more eggs per sample and the results are given in Table 5, below.

[4] = system: HT1080 (human fibrosarcoma); assay: Egg CAM assay, angiogenesis induced by VEGF-secreting cancer cells; assay type: in vivo; details: egg CAM, 10^5 HT1080 cells/egg with 0.1 μg peptide; for Angiogenic activity(%): (standard deviation)
Procedure: An experiment using egg CAM was carried out to confirm the inhibitory activity of the screened peptides against the angiogenesis induced by cancer cells, which secrete VEGF. Fertilized eggs were deprived of albumin and windows were formed on the eggs as in above. 10^5 cells of HT1080 (human fibrosarcoma) were mixed with 7.5 μg of Type I collagen (rat tail, Beckton Dickinson, USA) within a volume of 5 μl and dropped onto ¼ fraction pieces of Thermanox coverslips to give collagen sponges. After being covered with the collagen sponges, 10-day embryonic egg CAM was incubated at 37° C. for 3 days. Blood vessels induced by the cancer cells were observed and photographed as in above (see Table 6 and FIG. 12).

VEGF = molecular target: T1, VEGF (Homo sapiens, UniProt P15692); assay: Inhibition of 125I-labeled VEGF binding to its receptors on HUVEC; details: 10 μM peptide (FIG. 6)
T1 sequence (P15692 27-191 isoform P15692-4): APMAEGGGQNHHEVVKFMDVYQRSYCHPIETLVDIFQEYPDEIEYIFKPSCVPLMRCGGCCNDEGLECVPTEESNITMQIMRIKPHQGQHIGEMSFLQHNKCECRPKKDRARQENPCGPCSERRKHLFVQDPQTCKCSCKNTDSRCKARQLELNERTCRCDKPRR
Procedure: Then, the cells were transferred to a medium (Medium 199/25 mM HEPES, pH 7.4/0.1% bovine serum albumin) containing 0.2 ng of ^125I-labeled VEGF and various concentrations of peptides or combinatorial peptide libraries and reacted at 4° C. for 3 hours. The cells were washed twice with the same medium and once with PBS containing 0.1% albumin to remove the labeled VEGF which still remained uncombined. Thereafter, to quantify the labeled VEGF which bound to receptors present on the surface of the vascular endothelial cells, the cells were treated with 0.5 ml of a lysis solution (20 mM Tris-HCl, pH 7.4/1% TritonX-100) for 20 min, followed by measuring the resulting lysate for radioactivity with the aid of a γ-counter.
The sequence of each peptide was indirectly decided through the analysis of amino acid compositions and its concentration was determined, after which 12 peptides were assayed for antagonism toward VEGF binding at various concentrations (1, 4, 10, and 20 μM/sequence).

[5] = molecular target: VEGF receptors present on the surface of HUVEC (human umbilical vein endothelial cells) (human); assay: Scatchard analysis of 125I-VEGF165 binding to HUVEC; the kind of receptor at about 2,000 per cell
[6] = molecular target: VEGF receptors present on the surface of HUVEC; assay: Binding of 125I-labeled VEGF165 to HUVEC, Scatchard analysis; design: species or system human
Procedure: First, HUVEC (human umbilical vein endothelial cells) (Clonetics) were placed on gelatin-coated 100 mm dishes (Falcon) containing a vascular endothelial cell culture medium (Medium 199+20% BCS, 5 μg/ml of heparin, 6 μg/ml of endothelial cell growth supplement, 5 ng/ml of basic fibroblast growth factor) and cultured at 37° C. in a CO2 incubator for animal cell culture. After a certain period of time, the cells were treated with trypsin/EDTA. After centrifugation, the cells harvested were suspended in a fresh, vascular endothelial cells culture medium and aliquoted at a density of 5×10^4 cell/well to a 24 well plate (Costar Co.). […] Thereafter, to quantitatively determine the amount of the labeled VEGF which bound to receptors present on the surface of the vascular endothelial cells, the cells were treated with 0.5 ml of a lysis solution (20 mM Tris-HCl, pH 7.4/1% TritonX-100) for 20 min, followed by measuring the resulting lysate for radioactivity with the aid of a γ-counter. As for the non-specific binding, it was determined from a cell group cultured in the presence of a mixture of the labeled VEGF and non-labeled VEGF in a molar ratio of 1:100. […]
The measurement results are shown in FIGS. 1a and 1b in which radioactivity is plotted versus time and concentration, respectively.

[7] = molecular target: T2, ^125I-labeled VEGF165, P15692; assay: inhibition of 125I-VEGF binding to its receptors on HUVEC, gamma counting
T2 chain: T1 sequence (P15692 27-191 isoform P15692-4)

[8] = molecular target: T3, VEGF secreted from HT1080 human fibrosarcoma cells (human), P15692; assay: cell-based or functional assay
T3 chain: T1 sequence (P15692 27-191 isoform P15692-4)

[9] = molecular target: T4, VEGF (R&D systems), P15692; assay: cell-based or functional assay
T4 chain: T1 sequence (P15692 27-191 isoform P15692-4)

[10] = molecular target: T2, ^125I-labeled VEGF165, P15692; assay: 125I-VEGF on plate-fixed peptide, competition; KD computed from the IC50
[11] = VEGF 10 ng/egg alone or with 1 μg sample
[12] = VEGF 10 ng/egg alone or with 1 μg sample, (standard deviation)

Molecule: EEFDDA: control peptide of an amino acid sequence EEFDDA [reference compound]
effect on tumor size / growth of human colon carcinoma cells in mice [1]: no effects | metastasis of cancer cells versus tumor injected alone ([2]; mouse, in vivo): No difference in metastasis | VEGF-induced angiogenesis in the rabbit corneal dome (rabbit corneal domes): had no influence on the VEGF-induced angiogenesis; also recorded: obvious angiogenesis

Molecule: VEGF
Angiogenic activity eggs/total eggs [3, 11]: 9/27 | Angiogenic activity(%) [3, 12]: 33.6% and 33.6(3.8) %

Molecule: ^125I-labeled VEGF165 (from UniProt P15692 27-191) (ligand)
Kd [5]: 3 pM

Molecule: ^125I-labeled VEGF: radioactive iodine-labeled VEGF165 used as ligand
Kd ([6]; receptor density about 2,000 per cell, read-out: dissociation constant (KD), first kind of receptor): 0.003 nM | Kd ([6]; receptor density about 6,000 per cell, read-out: dissociation constant (KD), other kind of receptor): 0.05 nM

Molecule: protamine [reference compound]
Angiogenic activity eggs/total eggs [3, 11]: 5/26 | Angiogenic activity(%) [3, 12]: 18.8(4.1) % and 18.4(4.1) % | Angiogenic activity(%) ([3]; VEGF with protamine 50 μg/egg as stated in text): about 18.8%

Molecule: RKRRKR (modifications not checked) [Table 4 peptide 4 (RKRRKR)]
IC50 [7]: 8.5 µM

Molecule: RRKRKR (modifications not checked) [Table 4 peptide 2 (RRKRKR)]
IC50 [7]: 6 µM

Continued, in another order:

inhibition between labeled VEGF and its receptors (VEGF): no inhibition was observed
Molecule: KKKKKK: control peptide consisting of only lysine [reference compound]
metastasis, % of the control group to which only PBS was injected ([2]; weak inhibitory activity, measure not specified): about 80% | Angiogenic activity eggs/total eggs [3, 11]: 8/25 | Angiogenic activity eggs/total eggs [4]: 14/22 | Angiogenic activity(%) [4]: 59.0(1.4) % | Angiogenic activity(%) ([4]; listed as control peptide): 59%

IC50 [7]: 2 µM | Angiogenic activity(%), egg CAM, HT1080 cancer cells + peptide 0.1 µg (cancer cell alone 76.0, no treatment 18.5) [8]: 36% | Angiogenic activity(%), egg CAM, VEGF 10 ng + peptide 1 µg (VEGF alone 33.6, water 10.8) [9]: 15.6% | Kd [10]: 5 µM
Molecule: H-RRKRRR-NH2 [peptide of sequence 1 (SEQ ID NO: 1) (NH2-Arg-Arg-Lys-Arg-Arg-Arg-CONH2)]

IC50 [7]: 7.8 µM
Molecule: RKRRRR (modifications not checked) [Table 4 peptide 10 (RKRRRR)]

IC50 [7]: 3.8 µM | Angiogenic activity(%), egg CAM, HT1080 cancer cells + peptide 0.1 µg (cancer cell alone 76.0, no treatment 18.5) [8]: 41% | Angiogenic activity(%), egg CAM, VEGF 10 ng + peptide 1 µg (VEGF alone 33.6, water 10.8) [9]: 15.6% | Kd [10]: 22 µM
Molecule: H-RRRRRR-NH2 [peptide of sequence 3 (SEQ ID NO: 3) (NH2-Arg-Arg-Arg-Arg-Arg-Arg-CONH2)]

IC50 [7]: 6.5 µM
Molecule: RKKRRR (modifications not checked) [Table 4 peptide 7 (RKKRRR)]

IC50 [7]: 3.4 µM | Angiogenic activity(%), egg CAM, HT1080 cancer cells + peptide 0.1 µg (cancer cell alone 76.0, no treatment 18.5) [8]: 43% | Angiogenic activity(%), egg CAM, VEGF 10 ng + peptide 1 µg (VEGF alone 33.6, water 10.8) [9]: 15.6% | Kd [10]: 2 µM
Molecule: H-RKKRKR-NH2 [peptide of sequence 2 (SEQ ID NO: 2) (NH2-Arg-Lys-Lys-Arg-Lys-Arg-CONH2)]
